Measurements as given in doi:10.1101/2023.08.10.552581.

Legend:
[1] = biological target: PAR-2 RING domain (C. elegans); assay: AUC
[2] = biological target: PAR-2 RING domain (C. elegans); assay: SEC-MALS

PAR-2 RING domain (domain or fragment)
Kd [1]: 358 nM
stoichiometry N [2]: 2
